Assay results from PMC11077084, “Biochemical characterization of the meiosis-essential yet evolutionarily divergent topoisomerase VIB-like protein MTOPVIB from Arabidopsis thaliana” (Nucleic Acids Research, 2024).

Legend:
[1] = biological target: T1, N. equitans Topo VI complex (Topo VIA•Topo VIB) (Nanoarchaeum equitans, UniProt Q74N98); assay: radioisotope-based ATPase assay; also ATP-agarose pulldown; type: biochemical; conditions: labelled compound (gamma-32P) in the ATPase assay
T1 construct: gene top6B; codon-optimized Topo VIA and VIB co-expressed from pETDuet in E. coli Rosetta (DE3) pLysS; heat step, Ni-NTA; A2B2 heterotetramer; with Type 2 DNA topoisomerase 6 subunit A
T1 sequence (Q74N98 1-567): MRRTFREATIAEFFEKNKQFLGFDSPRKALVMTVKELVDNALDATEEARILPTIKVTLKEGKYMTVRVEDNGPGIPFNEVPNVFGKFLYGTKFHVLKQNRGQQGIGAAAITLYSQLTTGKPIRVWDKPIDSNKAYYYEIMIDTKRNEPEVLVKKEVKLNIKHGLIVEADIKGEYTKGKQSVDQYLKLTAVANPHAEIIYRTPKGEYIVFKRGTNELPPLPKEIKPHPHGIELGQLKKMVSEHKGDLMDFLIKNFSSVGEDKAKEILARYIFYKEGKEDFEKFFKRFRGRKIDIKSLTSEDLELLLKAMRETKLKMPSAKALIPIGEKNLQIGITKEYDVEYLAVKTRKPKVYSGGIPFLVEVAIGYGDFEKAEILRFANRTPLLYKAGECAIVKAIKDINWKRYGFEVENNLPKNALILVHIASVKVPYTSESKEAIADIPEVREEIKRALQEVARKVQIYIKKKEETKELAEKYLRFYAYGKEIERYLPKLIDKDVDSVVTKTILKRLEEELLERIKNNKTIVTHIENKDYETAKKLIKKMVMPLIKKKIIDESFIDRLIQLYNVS
T1 sequence (Q74M54 1-359 partner): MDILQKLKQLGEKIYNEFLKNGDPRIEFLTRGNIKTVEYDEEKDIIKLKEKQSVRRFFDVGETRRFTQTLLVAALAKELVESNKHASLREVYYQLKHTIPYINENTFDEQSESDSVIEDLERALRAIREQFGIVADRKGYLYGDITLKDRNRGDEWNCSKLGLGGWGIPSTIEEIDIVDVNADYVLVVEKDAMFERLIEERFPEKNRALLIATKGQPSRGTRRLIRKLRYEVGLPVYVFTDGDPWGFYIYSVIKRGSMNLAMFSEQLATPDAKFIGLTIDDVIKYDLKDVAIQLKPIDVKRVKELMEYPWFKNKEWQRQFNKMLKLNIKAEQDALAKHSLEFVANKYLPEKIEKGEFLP

[2] = biological target: the molecule itself; assay: SEC; Hi-Load Superdex 200 in D buffer without imidazole and glycerol, last step of the purification; monomer to dimer
[3] = biological target: T2, MTOPVIB (Arabidopsis thaliana, UniProt Q5Q0E6 1-473); assay: SPR; reaction buffer F, 0.05% Tween 20, 23 C; 1:1 global fit; EMSA: reaction buffer F (composition not in material) + 0.1 mg/ml BSA, 23 C, 30 min, 0.8% agarose-TBE at 4 C (6% PAGE for the competition); SPR: buffer F + 0.05% Tween 20, 23 C; conditions: protein: recombinant; tags: none (His6-MBP removed by PreScission); chain copies: 2; label: 5' biotin on Oligo 1; blunt
T2 sequence: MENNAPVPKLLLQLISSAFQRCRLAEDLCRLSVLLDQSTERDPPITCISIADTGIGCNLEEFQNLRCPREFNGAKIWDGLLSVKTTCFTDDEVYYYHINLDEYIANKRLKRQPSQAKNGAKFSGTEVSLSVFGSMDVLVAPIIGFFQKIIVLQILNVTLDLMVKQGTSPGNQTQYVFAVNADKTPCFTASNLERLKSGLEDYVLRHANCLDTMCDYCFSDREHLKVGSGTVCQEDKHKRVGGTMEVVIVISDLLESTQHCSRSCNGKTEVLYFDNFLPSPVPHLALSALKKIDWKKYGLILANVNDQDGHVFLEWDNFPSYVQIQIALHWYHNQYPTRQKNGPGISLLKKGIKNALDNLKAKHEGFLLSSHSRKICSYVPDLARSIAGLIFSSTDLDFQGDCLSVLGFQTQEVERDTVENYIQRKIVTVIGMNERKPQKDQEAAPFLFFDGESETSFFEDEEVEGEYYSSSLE

[4] = biological target: the molecule itself; assay: SEC; purified MBP-tagged MTOPVIB on a Superdex 200 Increase 10/300 GL column calibrated with size standards; without ATP; monomer to dimer

With Nc1ncnc2c1ncn2[C@@H]1O[C@H](COP(=O)(O)OP(=O)(O)OP(=O)(O)O)[C@@H](O)[C@H]1O [ATP] as the molecule, how does the “radioisotope-based ATPase assay; also ATP-agarose pulldown” value [1] read?
Its value is “unlike the Topo VI complex that hydrolyzed ATP to release”.

B1: Nanoarchaeum equitans Topo VIB (expressed alone from pET21b) (natural protein, UniProt Q74N98 1-567, looked up)
chain: T1 sequence (Q74N98 1-567)
notes: Topoisomerase VI subunit B, Nanoarchaeum equitans, codon-optimized cDNA in the Nde1 and Xho1 sites of pET21b; The tag is inferred from the vector and the Ni-NTA step; also called N. equitans Topo VIB; source: E. coli Rosetta (DE3) pLysS, purified (Ni-NTA, HiPrep SP XL, Hi-Load Superdex 200)
With B1 as the molecule, how does the “stoichiometry N” value [2] read?
The value was 2.

B2: 80 bp dsDNA, biotinylated (dsDNA)
DNA 1: TTATGTTCATTTTTTATATCCTTTACTTTATTTTCTCTGTTTATTCATTTACTTATTTTGTATTATCCTTATCTTATTTA
DNA 2: TAAATAAGATAAGGATAATACAAAATAAGTAAATGAATAAACAGAGAAAATAAAGTAAAGGATATAAAAAATGAACATAA
Which Kd [3] does the source give for B2 here?
The Kd was about 150 nM.

B3: A. thaliana His6-MBP-MTOPVIB (natural protein, UniProt Q5Q0E6 1-473, looked up)
chain: T2 sequence
notes: a PreScission protease site lies between the tag and the protein; Tag not cleaved in the size-exclusion analysis (MBP-tagged MTOPVIB) nor during the amylose step of the complex purification; also called MBP-tagged MTOPVIB; meiotic Topo VIB-like protein; source: High Five insect cells (baculovirus); purified alone (amylose, heparin, Mono Q, Superdex 200), and co-expressed with His6-SPO11-1 and …
With B3 as the molecule, how does the “stoichiometry N” value [4] read?
Its value is 2.
